Tests used:
Assay in all cases: cell_activity
[1] = test system: ZFN SBS#25191 (HLA-A3) (synthetic construct); settings: HEK293, Surveyor assay; ZFN identity (pair 25191/25190) inferred from Table 1
[2] = test system: ZFN SBS#25190 (HLA-A3) (synthetic construct); settings: HEK293, Surveyor assay; ZFN identity (pair 25191/25190) inferred from Table 1
[3] = test system: ZFN SBS#18889 (ZFN-L, HLA-A2) (synthetic construct); settings: pair with 18881, EL/KK FokI, primary T cells, 2.5 ug each mRNA; 19% at 37C and up to 57% with 30C cold shock without EL/KK; Table 2 prints AGG where listing …
[4] = test system: ZFN SBS#18881 (ZFN-R, HLA-A2) (synthetic construct); settings: pair with 18889, EL/KK FokI, primary T cells, 2.5 ug each mRNA; 19% at 37C and up to 57% with 30C cold shock without EL/KK

Sequence: ATGGAGCCGCGGGCGCCGTGGATAGAGC (double strand) [HLA-A3 target site of 25191]
- activity (% modified HLA-A3 alleles) [1]: 10

Sequence: CTGGCTCGCGGCGTCGCTGTCGAACCGC (double strand) [HLA-A3 target site of 25190]
- activity (% modified HLA-A3 alleles) [2]: 10

Sequence: GTATGGCTGCGACGTGGGGTCGGACGGG (double strand) [HLA-A2 target site of 18889]
- activity (% HLA-A2 negative cells) [3]: 52

Sequence: TTATCTGGATGGTGTGAGAACCTGGCCC (double strand) [HLA-A2 target site of 18881]
- activity (% HLA-A2 negative cells) [4]: 52

From patent publication US20150037304
